Data set [1] relates to healthy male volunteers. Briefly: Safety and tolerability (adverse events) in HEC study. Format: in vivo, human. The note with it: single s.c. 0.3 IU/kg, N = 26; for Number of adverse events (AEs): all transitory and mild, most probably related to the HEC procedure; for Tolerability of single dose: healthy male volunteers. As to the method:
Safety evaluation. The safety and tolerability of both studied drugs were also assessed. Throughout the trial, adverse events (AEs) were monitored and all participants underwent physical examination, vital signs assessment, electrocardiogram (ECG) recording, and laboratory blood and urine testing.

The subject of data set [2] is healthy male volunteers. Briefly: Pharmacodynamics (glucose infusion rate) in hyperinsulinemic euglycemic clamp (HEC). Format: in vivo, human. Conditions: N = 26, single s.c. 0.3 IU/kg, arithmetic mean (SD); for AUCGIR0‐t / GIRmax: 8-h HEC. The procedure:
The PD effect of insulin aspart was evaluated using the manual euglycemic clamp technique, as described previously[7] with adaptations described below.
Before the clamp procedure. Subjects were hospitalized approximately 12 hours before each drug administration. After the baseline physical examination, vital signs measurements, alcohol breath test, and urine drug testing were performed to confirm compliance with the study restrictions. All participants were given a standardized light meal in the evening before the clamp. Subjects fasted for at least 10 hours before the dosing and remained fasted until the end of the clamp.
During the clamp procedure. The next morning HEC was performed.
Pharmacodynamics. As described above, blood glucose values determined every 5 minutes during HEC were used to measure and manually adjust GIR.

The nature of data set [3]: Pharmacokinetics of insulin aspart in plasma during hyperinsulinemic euglycemic clamp (HEC). Conditions: healthy male volunteers, N = 26, arithmetic mean (SD); for AUCins.0‐t: single s.c. 0.3 IU/kg into abdomen, ELISA double measurement; for AUCins.0‐t / Cins.max: 8-h HEC, plasma; for Cins.max: ELISA; for AUCins.0‐∞: extrapolated to infinity.
Procedure: (§1) This was a phase 1, randomized, double‐blind, two‐center, two‐treatment, single‐dose, two‐period, crossover, 8‐hour HEC study in healthy subjects. The study was conducted simultaneously in 2018 at two clinical sites (Almazov National Medical Research Center, Saint Petersburg, Russia, and Endocrinology Research Centre, Moscow).
(§2) NovoRapid® Penfill® (Novo‐Asp), as a solution for injection (100 IU/mL), by NovoNordisk, Denmark was used as a reference drug. Both drugs were administered subcutaneously into the abdomen using a BD Micro‐Fine 0.5‐mL insulin syringe with an 8‐mm needle. In this study, the dose of insulin aspart was 0.3 IU/kg for each formulation.
(§3) The next morning HEC was performed. Subjects remained in a supine position for the entire procedure. The time of dosing of the investigated insulins was defined as a zero point. Plasma glucose levels were measured to confirm euglycemia state 60 and 30 minutes prior to the dosing. The target value for blood glucose concentrations during the clamp procedure was defined as 90 mg/100 mL and the acceptable glycemic range in this study was set as 80–100 mg/100 mL. After subcutaneous injection of the investigated insulin, intravenous 20% glucose infusion was started once the baseline plasma glucose level decreased by more than 5 mg/100 mL. The glucose infusion rate (GIR) was controlled and adjusted manually using an infusion pump (Infusomat fmS, B. Braun Melsungen AG, Germany) to maintain plasma glucose concentrations of 80–100 mg/100 mL. HEC lasted 8 hours, and during the entire procedure glycemia was measured using a glucose analyzer (StatStrip, Nova Biomedical, USA) and GIR was adjusted accordingly every 5 minutes. The GIR was documented throughout the procedure and was used to reflect the activity of insulin. Glucose infusion could be discontinued earlier if GIR equaled 0 mg/kg/min at three consecutive measurements 6 hours or more after dosing. Blood samples for PK assessment were obtained for 8 hours postdose.
(§4) Pharmacokinetics. During each HEC 21 samples (each 9 mL of venous blood) were collected from all participants at regular time intervals to assess the concentrations of insulin aspart and C‐peptide: 60, 30, 0 minutes predose and 10, 20, 30, 40, 50, 60, 75, 90, 105, 120, 135, 150, 165, 240, 300, 360, 420, 480 minutes postdose. To obtain plasma samples for the bioanalytical part the blood samples were centrifuged at 3000 rpm for 15 minutes, then the supernatant was transferred into clean tubes. Insulin determination in plasma was performed by a validated enzyme immunoassay (EIA) method using a Personal Lab (Adaltis S.r.l., Italy) analyzer. A Mercodia Iso‐Insulin ELISA kit (Mercodia, Sweden) was used to measure total endogenous human insulin and insulin aspart concentrations and then a Mercodia Insulin ELISA kit (Mercodia) was used to quantify specifically the endogenous human insulin concentration. […] The validated lower (LLOQ) and upper (ULOQ) levels of quantification for total insulin assay were 10.00 and 300.00 μIU/mL, and for human insulin assay they were 10.00 and 150.00 μIU/mL.
The conditions of data set [4]: human, in vivo, sc.
Procedure: as §1, §2, §3, §4

Data on two substances can be found in paper PMC9541865, “Clinical Pharmacology of Insulin Aspart Biosimilar GP40071: Pharmacokinetic/Pharmacodynamic Comparability in Hyperinsulinemic Euglycemic Clamp Procedure” (Clinical Pharmacology in Drug Development, 2022).

Like-named read-outs stand apart in the source and are kept apart here.

As to insulin aspart [Novo‐Asp], in data set [1], the Cases of hyperbilirubinemia entry is “One”, the Cases of phlebitis result is “one”, the “Number of adverse events (AEs)” value is reported as “two” and the “Tolerability of single dose” value is “well tolerated”. Also, in data set [2], the “AUCGIR0‐t” value is on record as 42.81 (13.28) mg/kg × 60 min, the GIRmax is 10.65 (3.3) mg/kg/min, the “tGIRlag (onset of action)” value is listed as 0.44 (0.18) and the “tGIRmax (time to reach GIRmax)” value is 2.82 (1.02). Moreover, the “AUCins.0‐t” value in data set [3] is 716.37 (199.60) μLU/mL × h. In data set [3] (single s.c. 0.3 IU/kg), the Cins.max is 245.58 (72.70) μLU/ml/mL, the t1/2 is recorded as 0.93 (0.36) h, the tmax is 1.37 (0.49) h and the “AUCins.0‐∞” value is 745.70 (209.72) μLU/ml/mL × h.
As for insulin aspart [GP‐Asp], in data set [1], the Cases of hyperbilirubinemia entry is on record as “One”, the Cases of phlebitis result is listed as “one”, the “Number of adverse events (AEs)” value is on record as “two” and the “Tolerability of single dose” value is on record as “well tolerated”. In addition, in data set [2], the “AUCGIR0‐t” value is on record as 43.48 (12.43) mg/kg × 60 min, the GIRmax was 11.21 (3.43) mg/kg/min, the “tGIRlag (onset of action)” value is given as 0.48 (0.21) and the “tGIRmax (time to reach GIRmax)” value is 2.75 (0.94). Also, the “AUCins.0‐t” value in data set [3] was 750.86 (163.48) μLU/mL × h. Besides, in data set [3] (single s.c. 0.3 IU/kg), the Cins.max is recorded as 286.95 (86.53) μLU/ml/mL, the tmax is listed as 1.51 (0.53) h and the “AUCins.0‐∞” value was 776.90 (166.33) μLU/ml/mL × h. For the same substance, in data set [4], the t1/2 is given as 0.88 (0.31) h.
